Biological target: Recombinant TcdB (aa 1751–2366), biotinylated (Clostridioides difficile; strain of …, UniProt P18177)
Experiment: SPR
Settings: both partners purified

Sequence of Recombinant TcdB (aa 1751–2366), biotinylated (P18177 1751-2366): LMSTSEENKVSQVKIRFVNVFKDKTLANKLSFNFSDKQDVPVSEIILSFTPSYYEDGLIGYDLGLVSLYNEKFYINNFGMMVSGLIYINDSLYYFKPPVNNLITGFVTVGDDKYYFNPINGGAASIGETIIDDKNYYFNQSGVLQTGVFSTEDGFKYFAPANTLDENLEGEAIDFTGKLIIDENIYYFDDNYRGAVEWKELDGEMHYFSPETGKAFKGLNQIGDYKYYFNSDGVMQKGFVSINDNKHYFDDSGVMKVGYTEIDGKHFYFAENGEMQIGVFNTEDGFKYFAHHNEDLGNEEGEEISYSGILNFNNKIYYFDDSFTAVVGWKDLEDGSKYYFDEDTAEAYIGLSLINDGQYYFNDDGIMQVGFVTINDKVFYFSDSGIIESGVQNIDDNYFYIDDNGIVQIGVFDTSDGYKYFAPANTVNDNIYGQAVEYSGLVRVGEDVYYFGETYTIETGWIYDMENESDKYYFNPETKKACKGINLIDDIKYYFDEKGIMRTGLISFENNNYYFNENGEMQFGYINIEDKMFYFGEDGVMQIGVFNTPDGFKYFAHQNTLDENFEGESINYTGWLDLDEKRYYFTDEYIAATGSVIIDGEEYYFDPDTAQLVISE

B1: B39 (VHH)
VHH: QVQLVESGGGLVQAGGSLRLSCAASGLTFSRYVMGWFRQAPGKEREFVAAITWGGTPNYADSVKGRFTISRDNSKNTQYLQMNSLKPEDTAVYYCAAGLGWDSRYSQSYNYWGQGTQVTVSS
  Kd: 0.07 nM
  koff: 0.00256 s⁻¹
  kon: 3.44e+07 M⁻¹ s⁻¹
